According to article PMC3819287:

Target: J17 (pH-sensitive anti-PCSK9 mAb, variant of J16) engineered pH-sensitive variant of J16; substitutions not stated in this article (see ref 9)
Assay: KinExA (kinetic exclusion assay), multi-curve global analysis
Conditions: pH 7.4; room temperature (approximately 23 C); 154 mM NaCl; PBS pH 7.4 (1 mM KH2PO4, 5.6 mM Na2HPO4, 154 mM NaCl)

## rhPCSK9 (recombinant human proprotein convertase subtilisin/kexin type 9)
  KD: 0.064 nM
